Reference: a protein production outcome set (Wang et al. 2014)

Test: label from the status in PepcDB records

Sequence	protein production
MLNTLIVGASGYAGAELVSYVNRHPHMTITALTVSAQSNDAGKLISDLHPQLKGIVDLPLQPMSDVRDFSADVDVVFLATAHEVSHDLAPQFLQAGCVVFDLSGAFRVNDRAFYEKYYGFTHQYPELLEQAVYGLAEWNVDKLNTANLIAVPGCYPTAAQLSLKPLIDGGLLDLTQWPVINATSGVSGAGRKAAISNSFCEVSLQPYGVFTHRHQPEIAVHLGAEVIFTPHLGNFPRGILETITCRLKAGVTHAQVADVLQKAYGDKPLVRLYDKGVPALKNVVGLPFCDIGFAVQGEHLIVVATEDNLLKGAAAQAVQCANIRFGFAETQSLI	not failed
MNTLNRYIGWEVIKGAAFAALVLLALLNFFTFADELRDLGEGNYGLGSIFLYLTLTSPHSLYELIPSGALIGGLVVLGNMANNHELVAMQAAGVSRGRIVWAVLRAGIVISLISVVISEYVIPPAERAAQMLKATATRQQVASQTKYGVWIRDGNVYVNVREIENQERLGDIHIFEISPDGRPALAMHAARASFDRGIWKLEDIGLTRFDPAGNAAIAEHKEQEDWSSVLSPDMLDVFIVRPENLSAQDLAKYMAYQTENAQKSLAVEQAFWGRMVNPLITLAMLLLAIPFVFNARRDVSSGQRIVIGVTIGLGFYLTNRMVSHLGLVYEVNAPLTMVTPPLVVLFAALAAFRRRP	failed
MKANLERVPIRIGSSWRYKKIDGVEKNCHWHFHNEYELVLFRKNNAKGMVGHFERVIEKNTLWLIPPKMPHAIELLEEKELQCESHIIWLPKEWVENMIFSCTELRRMGELFKRSSNGLCFSTSTAEKVYQLIEKLFKDSILDDLGYLIQILGCLCSDKETRPLQLFSKQEASDKEGKEK	failed
MEKLKEFRGIKEHLGVFREAVKDAERIGFAGVPGVCTPFAQLFAYAVRDKDNIFIPNTDFSKARKLEVTEYGVELGEISPGNVDVLVLLGGLSMPGIGSDIEDVKKLVEDALEEGGELMGLCYMDMFARAGWYELLDFDCVINADIDGYVLRG	not failed
AKESEQKVTIDSAKHEKHTKDKEENNSANTVFFDKINDLLVASVKEFEGTVGISYLDLETGEQRSVNGQHEFYTASTIKVPLTMLVADTVASGQKKWTDLIPYNAEEDYEEGTGIIAYNIQPEYPLKTLQEYAITYSDNIAKNMLYDTLGGDAKAKREMYQRYLHKTPSIEEPQFSSEDALVILQKLYTEKATKPDYQAIYDSMKQSVFHERMETPTTQGKVAHKIGSYDEFIHDMGILETPHPFALAIFTKGPDNAKSAAFIASVTDKLWQLQVSEYPNQ	not failed
MTKSYDVWWQKGQESDDDMARDHQEAWERTIEMLDTSDIKGKTILDVGCNQGGFLRKLYDTTPFKEGVGIDLARLSLEKAETLKGERPLTYYLTDKPQETNRTFDTAVSTSVLYLIEDIPQHAQDLKEVLKPGGVYYASFADLTNNPSRQFMDDTINQYGATPSQNHSLKHIVDSFVDAGFEVAVMKEPVPDVIDLTHYSDFYLSPNDYLQTLYEESFLIKASVKEGIGKLEHHHHHH	not failed
MQAKSEAKLAIGVIGCGNISMTYLRNAALFGGIELRACADISADMAALRAKEYGIQALGVDALLSDPEIDLVLNLTIPAAHFDISLSALSAGKHVFTEKPLATSAGDGRRLVAEAAKRGVLLGSAPDTFLGAAGRRARRLMDEGAIGRPVTGTAFMMGRGMEHWHPNPQFYYQPGGGPVFDMGPYYLTMLVNLLGPVARVMAMATRGQEERLITAEGPFKNTTFKVGTPTNVLSLLEFRSGATVTFGASWDVFKHSNHPIELHGTEGSLRLPDPDTFGGTVSLSERGADWKDFAGEGELYGARNWPYAAPDRANYRMLGVADLVRSLKTGAVPRASGNLALHVLEIMEAILHSGETKSAVAIAGDVVQPALLTEDEANSLLA	failed
HDLALSGNAYKVRLFLSLIGREATLRPVDFLNREHKTQAFLRMNPRGQIPVLEDGELQLGDSHAILVYLARRHADPVWYPLDPVSQGRIAYWLSYSANEVQNGPASARLITRFNLPLDREQTHQRGLEVLRLVDRHLAEHRWLAQGEQPSIADVALYPYLALAPEGGLALDHYPALNAWIARIRALPGYIPMPGL	not failed
ALPDPVKPKAPKAVNPFHLGMAGYTFVNFDLDTTLKTLERLDIHYLCIKDFHLPLNSTDEQIRAFHDKCAAHKVTGYAVGPIYMKSEEEIDRAFDYAKRVGVKLIVGVPNYELLPYVDKKVKEYDFHYAIHLHGPDIKTYPDATDVWVHTKDLDPRIGMCLDVGHDLRNGCDPVADLKKYHTRVFDMHIKDVTDSSKAGVGIEIGRGKIDFPALIRMMREVNYTGMCSLEYEKDMKDPFLGIAESIGYFKAVSDLT	not failed
MLFKTIFYQKLQKKVTTLFNLETERVIREIENLNKNNPKVIFQAPEGLKLKVEKEIEKIKQYFKQKNINIEIYLWGNTCFGACDLIDNHVKNLNVDLIIHYGHEKLSYANPEIKTLFIPAYHIFNKDEEEKILNDIKNFIEKHKSGGKKVAIATTIQYKKLLKDFNPSIILGCRGEVKEGDVILFVGTGRFHPLMIAYKYQKEVFIYNPLSKCFDKISEEEINKFIKKRILAISKLLLNKPKKVGVVLSTKKGQCRKRVFDEIIKLLEENDVNYLPILVDNISPDILFYDVDCYIIVACPRIVLDDYILYKKPIYTPEEFKLFLKNSFKYKFDEIKEDDFLEHHHHHH	not failed
MIFVIFAKKSVRFPGKHSAMINGRRMIDIVASKLKNHGEVILYSKDPELNCDMCRVVRDTTDGIITDSVLSAMDRFGTFFAVAGDMPFITDRIIEKILSSYDGKPTFPVHADGLIEPLFGIYTDAIYDAMRDYIESGGESLIGFLSMADIDRVPIAEEEEKFFVSVNYPEDIKKYADLLTLEHHHHHH	failed
METPNSTGGTPPTMRVSVVLCTHTMERYDDCRAAAESVLAQTYDDVELVLVSDGNRDVYKQYQSDFGNRDDVLTHCNDANVGLLESRNNGAEVATGDVVAFIDDDAIADEEWVAALVDAYEQQDALAVGGRMTPAWVAGKPSFLPAEFYWLIGVTHRGFGPNGDPDEPGVVRNTFGSNISFDRDVFLELGGFDDDIGGRQGEKNLQGGETELCARLRTEYDEGVYYTPEALVAHKIFDYRTDPGWLLDRAFWQGYSKRGMEVFVPESTGEESDFLSDLLFRFAPERIWGLVRAPSVAGVLQFVFLFALTAFVGFGYLYGMTVWG	failed
AIVKRFEPLLLVPIGFGGILSNLPDAGLAMSAIENAVYAAKPEVMTAFSEVLQLSSYMPADIKQALSSATPLQMTTLHLLAEQYQYSDGM	failed
SGLAQPQIAAVVAAPKKPEPAKAPKAPKSKSEKENKPVVAARKANAPVAKNASPVKGGKGPAGGDVGRPKNPTANGANNQGRFNNNQRYGNKESNGEFGNELPQRQFNNRDNRGPPRVRTGEKFG	failed
MTKAPSLAFLCIQSLKIQLLESDNPIPDLYELPSELLDGIVAHLPALALQKFQTNMPFHCLDSYESGDDCCLITGRKRARNDVLGSSWKLLFKLRWPDFVDRVESPADWQQLYWEKHLQNCVDEAAEVALRPTFSGRICSINVSDNILRYICHEEHIMTCQNCVCKELSFHFQTFGPYLRCLRLLNVLCVTETSELLRTSKLRSLVLRWIRSEKHVEPLCKLLIQSRETLTSLELIHCKLSLSSISAICTSLHEKGIHTTGMQRFCIKTSSIEIDPLAAPSAFVSFLMSVRTLHSLHFGDSNLDRYFARMVFSTLLDSSSNLSSLDLSENNISGWLSTFSCKSVVGSLSSGKSLQSLCKLNLRGNELDRYDAENLAHALLHMPGLESLDLSGNPIEDSGIRSLISYFTKNPDSRLADLNLENCELSCCGVIEFLDTLSMLEKPLKFLSVADNALGSEVAEAVVNSFTISIESLNIMGIGLGPLGFLALGRKLEKVSKKLLSINISKNRGGLETARFLSKLIPLAPKLISIDASYNLMPPEALLMLCDSLRTAKGDLKRLDMTGNSCISHEADHSSLLHEFQHNGEPIFVLPSSSVSHVPYDDDP	failed
MHNFLIIGAFISLGILLRRFKALPEHTPFVLNKIAINVCLPALILLNAPKIAFTRDAVTAAIIPWALLALSVGLVLLGAKIWQWPRPVVGVLLLIVPLGNTSFLGVPIIRTFFGADGLPHLIVYDQIGTMMIFATYGSFILSLYGQDGTLSVSAVVRKMLLFPPSLALAAGLALKSWSYPDGLSLALHYLALPLVPVVMTAIGLQLRLRLPPHLAAPVGIGLGIKMLAAPLAVLVACRLVDMNGLAVGVSVVEAGMPPMVTAGALAVVAGMEAELAIALVGIGILCSFGSLPALFWLVSL	failed
MKGREMKIVEFMKDKMVYIVFTLIFSSIYAGVHHRSIFLSLKVTLPIALFMMLFQPMVFMDIKKAFTTRTRVKTKYLILLTFFYTLLFPVLTWIFLKFWLRMMPNTEPQLLAGMVLIGLAPLPSSSPAFTNLAGGRFQLTLVGVMWTFLLSIFVMPFYAKLILHTIIQVPIEMLLKSLILYIITPLIIGQLTKYIILHWKGTDALISLKKPLIGISLIGMYWMIVVVFGINAKVIVERPELILIGAITMNIYFLLRAAIAYFIGKALDFPFEQNISLVYSTGSNMTLATAMAIGTFGPLAAVGTALGGPFSDMLLMIFFVKLFTLIRKKYIHNERKSITGG	failed
MEYQLQQLASLTLVGIKETYENGRQAQQHIAGFWQRCYQEGVIADLQLKNNGDLAGILGLCIPELDGKMSYMIAVTGDNSADIAKYDVITLASSKYMVFEAQGAVPKAVQQKMEEVHHYIHQYQANTVKSAPFFELYQDGDTTSEKYITEIWMPVKG	not failed
MTETIKCIGCGVEIQTEDKNEVGYAPASSLEKEQVICQRCFRLKHYNEIQDVSLTDDDFLRILNGIGKSDALVVKIVDIFDFNGSWLPGLHRFVGNNKVLLVGNKADLIPKSVKHDKVKHWMRYSAKQLGLKPEDVFLISAAKGQGIAELADAIEYYRGGKDVYVVGCTNVGKSTFINRMIKEFSDETENVITTSHFPGTTLDLIDIPLDEESSLYDTPGIINHHQMAHYVGKQSLKLITPTKEIKPMVFQLNEEQTLFFSGLARFDYVSGGRRAFTCHFSNRLTIHRTKLEKADELYKNHAGDLLSPPTPEELENMPELVKYEFNIREPKTDVVFSGLGWVTVNEPGAKIVAHVPKGVSVSLRKSLI	not failed
MTAVSSVYAQRLLITLFLVSFGIYLFVATVTYTPFDPGWMHISSDTQNVSNASGVAGAWIADLMFGFLGWASLLIPIFLFIEAIQIWWPRSFLTRPFRYAAQFFIILATSTLLYLYWNVPADTLENASGGIIGFEVGQSLSGLLTIYGATLFLVAFWVLLITLAFGIQWNRTWATLKATPAYLQDLFYKNVSPNESDYDLTEQPKKTASTSKTTVASEQNHQDQVHDQHLEQTTRTDQKAFDTTTKNFVSDEMVEKLFADVVAKEQYAQQQVQAVNTSIEDPAFEQTIQKAHQLEKEAKRLVPTGEVWKALQTDDSTHKQEIDALLRAADDNEPSVTPMTSDELLANLKAQQAQQNHTQPNNHTAKLNWNDDQIFDELLAAMPNSKIGSDIHTPFVEHREDTTPDHTDHLIQQVEQTLQASSNTLQPKNMTNLDEAEEQSDLLTETVEENPSTHYAGQPQNRSFTSNELTAKDQEKLSKEEFIEAWQETAGKPVEDDFDFDAPLTDASGRPMSRAMQVAQKRRDLPTLPGLELLDKVDPNKKVNFTVEQLERLSELLEIKLQEFNVKAKVVEAQPGPVVTRFELDLAPGVKASKVTNISRDLARSMSMASVRVVEVIPGKPYIGIEVPNSSREMVRLIELLETASFRDPAGLLSMAMGKDISGNPVITDLGKAPHMLVAGTTGSGKSVAVNSMILSMLLKYTPDQLRLILIDPKQLELANYNDIPHLLTPVVTDMKDAVSALNWCVNEMERRYKLMSFLKIRKLADYNRKVEEAIANGEDLIDPTWKPSDSATQERAPRLQPLPSIVIVADEFADMIMQVGKKAEEMITRLAQKSRAAGIHLLLATQRPSVDVITGLIKANIPTRVALRVNSKIDSRTILDAGGAEDLLGHGDMLFLGPGKIEPERVHGAFIGDDEVNRICDAWRERGEPNYVDEILTPFDEEPTSRGFEDGGEGASDRDMLYDQCVAFVLETRKASTSSLQRKFSLGYNRAARIIDQMEENGIVSAMGANGKREILV	failed
